In the RNAGym collection of RNA variant scans (doi:10.7554/elife.90254) one finds self-cleavage data, which are given here for 167 variants.

Sequences and labels used below:
B1: OR4K15 (parent)
chain: GUUAACGGUCAUAGGCCAUGGAAACUAGGAGCACCAUUUCGCUGCCAGUGAAGAAAUGAACAAAGAAAAUCUGGGCCAGGCAGGCAUCAAAAGAAAUAGUCUUGCGCUCAACCAGAAAGUCUGUAAUCAUUUUAAGGGUA

This data set covers variants of B1. Description: self-cleavage, relative activity (ratio to wild type); higher = more cleavage; in vitro, sequencing; the parent is a self-cleaving ribozyme.
On to U2G A111G, for which the self-cleavage was 0.

Regarding A96C U132C, the self-cleavage came to 0.83.

Take A56U A96G: the self-cleavage was 1.62.

On to U43A U133C, for which the self-cleavage came to 2.13.

Turning to A86G A126G, the self-cleavage came to 1.18.

With A60G A66G, the self-cleavage was determined as 1.15.

Turning to U49C U127A, the self-cleavage was found to be 2.43.

For C76A A111G, the self-cleavage was found to be 0.02.

Consider G7U A52G, for which the self-cleavage came to 1.83.

For the variant G74A A116G, the self-cleavage was 0.12.

Turning to A52G A118G, the self-cleavage is 1.21.

As to A24G A51U, the self-cleavage came out at 1.19.

In the case of A51G A98U, the self-cleavage amounted to 2.81.

As to A54G A55U, the self-cleavage is 1.55.

With G21U, the self-cleavage came out at 1.51.

As to U12C U127C, the self-cleavage was 0.62.

Turning to A117G A118C, the self-cleavage came out at 0.24.

As to A60G A110G, the self-cleavage was determined as 0.13.

Regarding G115U, the self-cleavage amounted to 0.23.

Take U12C U57G: the self-cleavage stood at 1.33.

Turning to C77U U103C, the self-cleavage is 2.12.

Turning to A95G A117U, the self-cleavage was 1.7.

On to A55G C107U, for which the self-cleavage turned out to be 0.05.

In the case of A13G C61U, the self-cleavage was 0.68.

As to C16A U39A, the self-cleavage stood at 1.23.

A22U A62G: the self-cleavage was 1.98.

Turning to A90U U103C, the self-cleavage came to 1.27.

Take A4G A91G: the self-cleavage was determined as 1.13.

In the case of U70C A94G, the self-cleavage stood at 0.77.

On to U70A U102A, for which the self-cleavage is 0.25.

A23G U133C: the self-cleavage was determined as 1.35.

In the case of G99A A111G, the self-cleavage was found to be 0.02.

Take A47G A110G: the self-cleavage was 0.1.

Turning to U97C U103C, the self-cleavage was found to be 0.58.

For U72C C109U, the self-cleavage is 0.06.

On to A59G A135G, for which the self-cleavage was found to be 0.84.

For the variant U19C A69U, the self-cleavage turned out to be 1.62.

C6A A11G: the self-cleavage was determined as 2.1.

Take G48A A98U: the self-cleavage turned out to be 2.56.

With A118U U130G, the self-cleavage turned out to be 0.71.

Consider U9C G123A, for which the self-cleavage stood at 2.14.

As for A55G U139C, the self-cleavage is 1.72.

Regarding U49C G83U, the self-cleavage amounted to 0.71.

Take A56U A60G: the self-cleavage is 0.43.

Turning to A11U A54G, the self-cleavage is 0.

Turning to U37C G58A, the self-cleavage stood at 1.14.

With U100A U139C, the self-cleavage was determined as 0.83.

Turning to U9A U127C, the self-cleavage came out at 1.05.

Consider A36G U87C, for which the self-cleavage is 2.04.

For the variant C6U U102C, the self-cleavage came out at 0.35.

Take A52G A110U: the self-cleavage was determined as 1.17.

Take U39A A64U: the self-cleavage is 1.87.

U39A A64G: the self-cleavage stood at 0.93.

With A24G A110U, the self-cleavage came out at 0.99.

With A67G U87A, the self-cleavage turned out to be 1.28.

Consider C10A U37G, for which the self-cleavage came to 0.71.

In the case of A13G A51U, the self-cleavage was 0.66.

As to U12C U100C, the self-cleavage is 1.4.

As for C46U U103C, the self-cleavage was 1.41.

In the case of C35U, the self-cleavage was 1.06.

For C85G A125G, the self-cleavage is 0.55.

For the variant G20C A36G, the self-cleavage worked out at 2.25.

A66U A78U: the self-cleavage amounted to 0.32.

As to U39G U102C, the self-cleavage amounted to 2.67.

With C34U A59U, the self-cleavage came out at 0.75.

In the case of A64U A82U, the self-cleavage was 0.19.

Turning to U38A A89G, the self-cleavage was found to be 2.67.

Take C81A: the self-cleavage was determined as 0.25.

In the case of A18U C42U, the self-cleavage came to 1.18.

With G50U A125U, the self-cleavage stood at 2.34.

Regarding C107U U108C, the self-cleavage amounted to 0.02.

As to A18G G48A, the self-cleavage is 1.81.

For the variant U97C U102C, the self-cleavage was determined as 2.38.

For A47U A91G, the self-cleavage was 0.88.

As to A30G A129G, the self-cleavage was found to be 1.02.

Consider A54G G137U, for which the self-cleavage was 1.44.

As to A78C A90G, the self-cleavage turned out to be 0.16.

Take A90G C101U: the self-cleavage turned out to be 0.21.

For the variant U49C A125G, the self-cleavage was found to be 0.7.

For A94U G119A, the self-cleavage is 2.29.

As for U12C A95G, the self-cleavage is 1.57.

A33G C77U: the self-cleavage was 1.59.

Regarding A56G A110U, the self-cleavage was 1.05.

As for A78U A90G, the self-cleavage was 0.32.

For the variant A51G U131A, the self-cleavage worked out at 0.59.

Regarding A13G A18U, the self-cleavage was found to be 0.89.

As for U26C A69C, the self-cleavage was determined as 1.74.

In the case of U19A U108C, the self-cleavage was 0.03.

With U19A A111G, the self-cleavage was found to be 0.02.

Regarding A59C C113A, the self-cleavage is 0.02.

Regarding U49C U132C, the self-cleavage amounted to 1.45.

As to A117C U122C, the self-cleavage amounted to 0.4.

Turning to A33U U102C, the self-cleavage stood at 2.32.

As to A23U A24G, the self-cleavage came out at 1.15.

As to A66U U124C, the self-cleavage came out at 1.25.

On to A60G C101A, for which the self-cleavage turned out to be 0.23.

Consider U38C A66U, for which the self-cleavage is 1.32.

Consider G73U A86C, for which the self-cleavage worked out at 0.19.

For A30G A54U, the self-cleavage came out at 1.33.

Regarding A55G U87A, the self-cleavage was 1.33.

On to A118U U124C, for which the self-cleavage was 0.45.

With C10U U100C, the self-cleavage worked out at 2.44.

As for U37C U132C, the self-cleavage is 1.54.

For the variant A30G A134G, the self-cleavage is 0.98.

For G8C A110G, the self-cleavage came to 0.26.

For the variant A52G U131C, the self-cleavage worked out at 1.51.

In the case of C10U U38A, the self-cleavage was 0.84.

For the variant U3G A140G, the self-cleavage is 1.39.

For the variant A92G C113A, the self-cleavage was 0.01.

In the case of A24C A94G, the self-cleavage worked out at 1.63.

For U9C G41U, the self-cleavage was determined as 1.55.

U57C U100A: the self-cleavage was determined as 0.4.

In the case of A23U A51U, the self-cleavage is 1.33.

Regarding A91G A95G, the self-cleavage came to 1.76.

Consider G44A U133C, for which the self-cleavage was determined as 1.78.

As for A33C U49C, the self-cleavage is 1.93.

Turning to A51C A60G, the self-cleavage stood at 2.31.

For C34G U132C, the self-cleavage is 2.44.

For the variant A52C U127A, the self-cleavage came to 1.62.

For the variant A24C U108C, the self-cleavage was 0.01.

Take U2A C45A: the self-cleavage turned out to be 1.82.

A30G U103C: the self-cleavage came out at 1.09.

For the variant U2C U133C, the self-cleavage was found to be 0.71.

For A22G U130C, the self-cleavage worked out at 0.3.

Consider A11C A13U, for which the self-cleavage came to 1.09.

As to A33U A55U, the self-cleavage was found to be 2.31.

As to U26C U127C, the self-cleavage worked out at 0.85.

For the variant U122A A134G, the self-cleavage was 0.73.

As for U3C G75C, the self-cleavage was 0.08.

In the case of G74A U102C, the self-cleavage came out at 0.05.

Regarding A51G U139C, the self-cleavage turned out to be 1.69.

With A60U A69G, the self-cleavage stood at 1.51.

As to G29C, the self-cleavage is 1.78.

For the variant G53U A59G, the self-cleavage came out at 1.26.

Regarding C45A A116G, the self-cleavage is 1.32.

With G20U A82U, the self-cleavage stood at 0.2.

As to A51G U70A, the self-cleavage was determined as 1.23.

For the variant U3C A60G, the self-cleavage was 0.93.

Regarding U2C A55U, the self-cleavage was 1.46.

Turning to A51G A52G, the self-cleavage came to 1.46.

With A11G U49A, the self-cleavage was 0.88.

In the case of A22G U26C, the self-cleavage stood at 1.02.

As for A68G A94U, the self-cleavage was 2.3.

On to U87A A114G, for which the self-cleavage was 0.08.

Regarding A4G C113U, the self-cleavage worked out at 0.19.

For the variant A36U U103A, the self-cleavage stood at 0.63.

Consider A51G U132C, for which the self-cleavage came to 0.81.

For the variant A55G A114U, the self-cleavage worked out at 0.02.

A52C: the self-cleavage worked out at 0.57.

In the case of A59G A118C, the self-cleavage amounted to 0.9.

For the variant A27G A126G, the self-cleavage worked out at 0.8.

For A23G A116U, the self-cleavage worked out at 0.3.

A96C A116G: the self-cleavage stood at 0.33.

Regarding U100G A126G, the self-cleavage amounted to 1.02.

For A52C A55U, the self-cleavage was determined as 1.72.

On to U124C, for which the self-cleavage was 0.62.

On to A56U U122A, for which the self-cleavage was 1.31.

Consider A24G A47U, for which the self-cleavage was determined as 0.96.

As to U2C G14A, the self-cleavage was 1.39.

Turning to C77U U108C, the self-cleavage worked out at 0.03.

For the variant A51G A114U, the self-cleavage came out at 0.08.

A64U U103C: the self-cleavage is 0.87.

For the variant U12A A33U, the self-cleavage is 1.4.

Take A11G A114U: the self-cleavage was 0.15.

Regarding U37C A96C, the self-cleavage is 0.89.

For the variant A78U A95U, the self-cleavage was 0.2.

In the case of A5G U122A, the self-cleavage is 1.34.
